This assay deals with human Nectin-4 on Nectin4-CHOK1 cells (CHO-K1 cell strain highly expressing Nectin-4) (human) (UniProt Q96NY8). The assay can be described thus: cell-based or functional assay.
human Nectin-4 on Nectin4-CHOK1 cells (CHO-K1 cell strain highly expressing Nectin-4) (human), sequence (Q96NY8 32-510 limits assumed): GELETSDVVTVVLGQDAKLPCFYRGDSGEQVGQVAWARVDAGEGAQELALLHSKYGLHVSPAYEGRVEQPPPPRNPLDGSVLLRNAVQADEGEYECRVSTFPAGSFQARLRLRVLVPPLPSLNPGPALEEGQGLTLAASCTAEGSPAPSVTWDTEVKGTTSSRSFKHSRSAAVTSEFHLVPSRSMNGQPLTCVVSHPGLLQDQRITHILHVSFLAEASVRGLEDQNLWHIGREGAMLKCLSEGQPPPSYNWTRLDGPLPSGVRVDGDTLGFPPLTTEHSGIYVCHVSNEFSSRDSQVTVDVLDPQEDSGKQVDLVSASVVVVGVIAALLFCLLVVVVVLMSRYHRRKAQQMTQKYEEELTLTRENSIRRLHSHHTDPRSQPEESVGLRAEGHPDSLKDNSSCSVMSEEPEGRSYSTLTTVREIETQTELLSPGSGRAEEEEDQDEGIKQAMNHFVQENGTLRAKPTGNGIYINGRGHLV

In the case of “C25-IgG1 (IgG1 isotype negative control) (antibody)”, the FITC-A signal value, 5 nM Ab + 15 nM pHrodo (pHrodo endocytosis assay, Nectin4-CHOK1 clone 3) is 129 and the FITC-A signal value, 20 nM Ab + 60 nM pHrodo (pHrodo endocytosis assay, Nectin4-CHOK1 clone 3) was 154.

(Values after patent publication US20260199504A1.)
